This is an account of results in patent US20260117202A1.

One assay has as its target FHS-55 (RSV strain A2) (UniProt P03420). The assay is described as follows: sandwich ELISA, AM14 coated, supernatant 1:10.
Another assay has as its target FHS-50 (RSV strain A2) (UniProt P03420). The assay is described as follows: sandwich ELISA, AM14 coated, supernatant 1:10.
The target of a further assay is FHS-2 (RSV strain A2) (UniProt P03420). The assay is described as follows: sandwich ELISA, AM14 coated, supernatant 1:10.
In the next assay the target is FHS-64 (RSV strain A2) (UniProt P03420). In words: sandwich ELISA, AM14 coated, supernatant 1:10.
The target in a further assay is FHS-45 (RSV strain A2) (UniProt P03420). The assay is described as follows: sandwich ELISA, AM14 coated, supernatant 1:10.
The next assay deals with FHS-68 (RSV strain A2) (UniProt P03420). The assay is described as follows: sandwich ELISA, AM14 coated, supernatant 1:10.
In another assay the target is FHS-49 (RSV strain A2) (UniProt P03420). The assay is described as follows: sandwich ELISA, AM14 coated, supernatant 1:10.
Another assay deals with FHM-24 (RSV strain A2) (UniProt P03420). The assay is described as follows: sandwich ELISA, AM14 coated, supernatant 1:10.
The target in a further assay is FHS-33 (RSV strain A2) (UniProt P03420). In words: sandwich ELISA, AM14 coated, supernatant 1:10.
A further assay addresses FHS-57 (RSV strain A2) (UniProt P03420). The assay is described as follows: sandwich ELISA, AM14 coated, supernatant 1:10.
Another assay has as its target FHS-30 (RSV strain A2) (UniProt P03420). The assay is described as follows: sandwich ELISA, AM14 coated, supernatant 1:10.
The target of a further assay is FHS-35 (RSV strain A2) (UniProt P03420). The assay is described as follows: sandwich ELISA, AM14 coated, supernatant 1:10.
A further assay addresses FHS-96 (RSV strain A2) (UniProt P03420). In words: sandwich ELISA, AM14 coated, supernatant 1:10.
The target of another assay is FHM-7 (RSV strain A2) (UniProt P03420). In words: sandwich ELISA, AM14 coated, supernatant 1:10.
The target of a further assay is FHS-81 (RSV strain A2) (UniProt P03420). The assay is described as follows: sandwich ELISA, AM14 coated, supernatant 1:10.
A further assay has as its target FHS-77 (RSV strain A2) (UniProt P03420). In words: sandwich ELISA, AM14 coated, supernatant 1:10.
A further assay concerns the target FHS-38 (RSV strain A2) (UniProt P03420). The assay is described as follows: sandwich ELISA, AM14 coated, supernatant 1:10.
For a further assay, the target named is FHS-88 (RSV strain A2) (UniProt P03420). The assay is described as follows: sandwich ELISA, AM14 coated, supernatant 1:10.
For the next assay, the target named is FHS-22 (RSV strain A2) (UniProt P03420). In words: sandwich ELISA, AM14 coated, supernatant 1:10.
The target of another assay is FHS-27 (RSV strain A2) (UniProt P03420). The assay is described as follows: sandwich ELISA, AM14 coated, supernatant 1:10.
Another assay addresses FHS-83 (RSV strain A2) (UniProt P03420). The assay is described as follows: sandwich ELISA, AM14 coated, supernatant 1:10.
A further assay deals with FHS-11 (RSV strain A2) (UniProt P03420). The assay is described as follows: sandwich ELISA, AM14 coated, supernatant 1:10.
The next assay has as its target FHS-13 (RSV strain A2) (UniProt P03420). In words: sandwich ELISA, AM14 coated, supernatant 1:10.
The target in another assay is FHS-9 (RSV strain A2) (UniProt P03420). In words: sandwich ELISA, AM14 coated, supernatant 1:10.
The next assay deals with FHM-21 (RSV strain A2) (UniProt P03420). The assay is described as follows: sandwich ELISA, AM14 coated, supernatant 1:10.
A further assay deals with FHS-7 (RSV strain A2) (UniProt P03420). The assay is described as follows: sandwich ELISA, AM14 coated, supernatant 1:10.
The target of another assay is FHS-19 (RSV strain A2) (UniProt P03420). The assay is described as follows: sandwich ELISA, AM14 coated, supernatant 1:10.
The next assay deals with FHM-6 (RSV strain A2) (UniProt P03420). The assay is described as follows: sandwich ELISA, AM14 coated, supernatant 1:10.
For a further assay, the target named is FHS-8 (RSV strain A2) (UniProt P03420). The assay is described as follows: sandwich ELISA, AM14 coated, supernatant 1:10.
Assay [1] concerns the target wild-type RSV F protein 1 before artificial mutation (RSV strain A2) (UniProt P03420). The assay is described as follows: sandwich ELISA, AM14 coated, supernatant 1:10.
A further assay has as its target FHS-90 (RSV strain A2) (UniProt P03420). In words: sandwich ELISA, AM14 coated, supernatant 1:10.
For a further assay, the target named is FHS-12 (RSV strain A2) (UniProt P03420). In words: sandwich ELISA, AM14 coated, supernatant 1:10.
Another assay has as its target FHM-2 (RSV strain A2) (UniProt P03420). The assay is described as follows: sandwich ELISA, AM14 coated, supernatant 1:10.
Assay [2] concerns the target FHCS-4 (RSV strain A2) (UniProt P03420). In words: ELISA; F coated 10000 ng/ml; stored -80° C.
The target of assay [3] is FHCS-1 (RSV strain A2) (UniProt P03420). The assay is described as follows: ELISA; F coated 10000 ng/ml; stored -80° C.
Assay [4] concerns the target FHCS-2 (RSV strain A2) (UniProt P03420). The assay is described as follows: ELISA; F coated 10000 ng/ml; stored -80° C.
For assay [5], the target named is FHCS-4 (RSV strain A2) (UniProt P03420). In words: ELISA; F coated 78.13 ng/ml; stored -80° C.
Assay [6] has as its target FHCS-1 (RSV strain A2) (UniProt P03420). In words: ELISA; F coated 78.13 ng/ml; stored -80° C.
Assay [7] has as its target FHCS-2 (RSV strain A2) (UniProt P03420). The assay is described as follows: ELISA; F coated 78.13 ng/ml; stored -80° C.
Assay [8] has as its target FHCS-1 (RSV strain A2) (UniProt P03420). The assay is described as follows: ELISA; F coated 312.5 ng/ml; stored -80° C.

Values joined by “and” are separate entries in the source; they are usually repeats but may differ in a detail not shown here. Equal values may be shown once.

Take AM14 monoclonal antibody: the OD value with FHS-55 (RSV strain A2) was 0.009 OD; with FHS-50 (RSV strain A2) it was 2.3 OD; with FHS-2 (RSV strain A2) it was 0.012 OD; in the assay with FHS-64 (RSV strain A2), 0.008 OD; with FHS-45 (RSV strain A2), 0.12 OD; with FHS-68 (RSV strain A2), 1.99 OD. In addition, the OD value was found to be 1.96 OD with FHS-49 (RSV strain A2); 1.61 OD in the assay with FHM-24 (RSV strain A2); 0.005 OD with FHS-33 (RSV strain A2); 0.007 OD in the assay with FHS-57 (RSV strain A2); 0.009 OD in the assay with FHS-30 (RSV strain A2); 0.007 OD in the assay with FHS-35 (RSV strain A2). Also, the OD value in the assay with FHS-96 (RSV strain A2) amounted to 0.011 OD; with FHM-7 (RSV strain A2) it was 0.007 OD; with FHS-81 (RSV strain A2), 0.008 OD; with FHS-77 (RSV strain A2), 0.06 OD; in the assay with FHS-38 (RSV strain A2), 0.008 OD; with FHS-88 (RSV strain A2), 2.3 OD. The OD value is 0.01 OD in the assay with FHS-22 (RSV strain A2); 0.005 OD in the assay with FHS-27 (RSV strain A2); 0.064 OD in the assay with FHS-83 (RSV strain A2); 2.04 OD with FHS-11 (RSV strain A2); 0.013 OD with FHS-13 (RSV strain A2); 0.009 OD with FHS-9 (RSV strain A2). Moreover, the OD value with FHM-21 (RSV strain A2) was 0.007 OD; with FHS-7 (RSV strain A2), 0.011 OD; with FHS-19 (RSV strain A2) it was 0.007 OD; with FHM-6 (RSV strain A2), 0.005 OD; with FHS-8 (RSV strain A2), 0.013 OD; in [1], 0.014 OD. Besides, the OD value is 0.007 OD with FHS-90 (RSV strain A2); 1.24 OD with FHS-12 (RSV strain A2); 2.23 OD with FHM-2 (RSV strain A2); 0.825 OD and 0.743 OD in the assay with FHCS-4 (RSV strain A2) [2]; 1.77 OD and 2.07 OD in the assay with FHCS-1 (RSV strain A2) [3]; 2.01 OD and 2.11 OD with FHCS-2 (RSV strain A2) [4].

Take Synagis® (antibody): the OD value with FHCS-4 (RSV strain A2) [5] was 0.009 OD and 0.011 OD; with FHCS-1 (RSV strain A2) [6], 0.009 OD and 0.01 OD; with FHCS-2 (RSV strain A2) [7] it was 0.014 OD and 0.015 OD; in the assay with FHCS-1 (RSV strain A2) [8], 0.065 OD and 0.053 OD.
